In US20230357447A1 (JANUX THERAPEUTICS, published 2023):

What was measured:
[1] = biological target: T1, Anti-CD28 scFv (VH-linker 1-VL) (biotinylated for capture on neutravidin plates); assay: phage ELISA, scFv captured on plate;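 note: crude clonal phage supernatants added to wells preincubated with soluble CD28 or with blocking buffer only, bound phage read out by HRP-linked anti-M13 antibody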
Description: (§1) Clonal phage were harvested as crude supernatants and screened via standard enzyme linked immunosorbent assays (ELISAs). […] Prior to the addition of clonal phage, wells were incubated with blocking buffer and CD28 soluble protein or blocking buffer alone. Without washing or aspirating, clonal phage supernatants were then added to the wells and incubated for a short time. Wells were then washed followed by detection of bound phage using a horse radish peroxidase conjugated anti-M13 antibody.

[2] = biological target: T1, Anti-CD28 scFv (VH-linker 1-VL); assay: phage ELISA, scFv captured on plate, competitor soluble CD28;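 note: crude clonal phage supernatants added to wells pre-incubated with soluble CD28 or with blocking buffer only as control, bound phage read out with HRP-linked anti-M13 antibody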
Description: as §1

T1 sequence (scFv, as listed by the source): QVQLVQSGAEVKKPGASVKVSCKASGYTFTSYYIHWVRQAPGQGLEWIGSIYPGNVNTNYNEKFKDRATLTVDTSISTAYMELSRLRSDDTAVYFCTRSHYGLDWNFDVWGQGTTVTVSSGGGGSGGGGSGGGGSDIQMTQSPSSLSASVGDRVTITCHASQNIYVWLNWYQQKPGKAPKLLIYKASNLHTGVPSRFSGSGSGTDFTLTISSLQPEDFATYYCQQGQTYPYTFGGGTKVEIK

Binder	Phage binding ELISA CD28 scFv signal [1]	Phage binding ELISA CD28 scFv signal in presence of CD28 [2]
MNWCPSDLWHLCFN [Phage-170]	0.739	0.131
MFWCPRYLWHECFN [Phage-163]	1.08	0.175
IDWCPRDLWALCFN [Phage-183]	0.37	0.129
MDWCPRSLWSYCFH [Phage-157]	1.33	0.152
MDWCPRNMWAQCFA [Phage-199]	2.31	0.209
MDWCPRDMWAECFF [Phage-190]	2.69	2.26
VDWCPRYLWHVCYN [Phage-189]	0.065	0.061
MHWCPRSLWNECYF [Phage-182]	0.456	0.115
MDWCPMNLWSECFN [Phage-173]	0.67	0.124
MNWCPSHLWHMCYF [Phage-171]	0.702	0.192
MFWCPMDMWDQCFN [Phage-202]	2.26	0.207
MHWCPRALWHECFN [Phage-160]	1.18	0.144
MDWCPSDLWHECFH [Phage-176]	0.629	0.164
MDWCPVSLWDHCFN [Phage-177]	0.616	0.1
MDWCPKHLWHQCFH [Phage-156]	1.35	0.108
IHWCPINMWDKCYN [Phage-206]	2.08	0.203
MDWCPWILWNECFN [Phage-179]	0.581	0.137
MDWCPFYLWDECFL [Phage-165]	1.02	0.141
MNWCPTDLWHECFN [Phage-162]	1.09	0.095
MDWCPAYLWAECFS [Phage-175]	0.64	0.12
MYWCPRDLWDVCFN [Phage-181]	0.512	0.102
MAWCPMNLWDQCFF [Phage-159]	1.2	0.145
MDWCPRYMWYQCFS [Phage-196]	2.36	0.357

Binder	Phage binding ELISA CD28 scFv signal [1]	Phage binding ELISA CD28 scFv signal in presence of CD28 [2]
MDWCPKHLWNECFN [Phage-174]	0.663	0.105
MDWCPMDMWVNCFN [Phage-193]	2.52	0.277
DVWCPKYMWSLCFN [Phage-192]	2.53	0.418
MDWCPSYLWDQCFF [Phage-188]	0.083	0.079
MDWCPPYLWYECFA [Phage-172]	0.692	0.094
MDWCPRDMWDQCFD [Phage-201]	2.29	0.119
MHWCPINLWNECFS [Phage-184]	0.316	0.098
MDWCPRAMWNHCFN [Phage-198]	2.33	0.426
MDWCPRDMWYECFN [Phage-191]	2.56	0.235
MDWCPRAMWHECFY [Phage-207]	1.92	0.129
IGKLTLCLNADLVI [Phage-187]	0.116	0.1
MSWCPRDMWFYCYA [Phage-203]	2.25	0.174
MDWCPTDMWHHCFL [Phage-205]	2.2	0.126
QDWCPTYLWHHCFN [Phage-186]	0.123	0.122
MDWCPRYLWTECFF [Phage-158]	1.26	0.244
MDWCPKFLWDLCFA [Phage-164]	1.07	0.139
MFWCPFDMWHFCFN [Phage-200]	2.29	0.469
MSWCPQDLWHVCFN [Phage-167]	0.86	0.112
MDWCPKHMWFMCFN [Phage-195]	2.4	0.372
MDWCPRHMWYECFF [Phage-197]	2.34	0.298
MDWCPKDLWHECFN [Phage-168]	0.762	0.1
MDWCPSDMWHECYA [Phage-194]	2.47	0.2
